According to patent US20060235215A1 (published 2006):

T1: Hypothetical Protein 006819-2510, Similar to Hemerocallis Senescence-Related Protein 5, bait fragment aa 1-150 (Oryza sativa)
T1 construct: bait; also called Os006819-2510; PN20462
T1 chain: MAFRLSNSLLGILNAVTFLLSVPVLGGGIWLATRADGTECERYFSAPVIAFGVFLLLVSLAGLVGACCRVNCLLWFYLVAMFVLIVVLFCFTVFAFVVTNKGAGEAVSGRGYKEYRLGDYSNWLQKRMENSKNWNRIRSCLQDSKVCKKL

T2: O. sativa Serine/Threonine Protein Phosphatase PP2A-2, Catalytic Subunit, bait fragment aa 150-308 (Oryza sativa, UniProt A2XN40 150-307)
T2 construct: bait; also called OsPP2A-2; PN20254
T2 sequence: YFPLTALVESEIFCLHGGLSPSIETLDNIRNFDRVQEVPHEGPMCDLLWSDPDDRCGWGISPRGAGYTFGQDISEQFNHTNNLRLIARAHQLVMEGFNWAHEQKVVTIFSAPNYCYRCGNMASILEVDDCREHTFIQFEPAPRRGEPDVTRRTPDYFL

T3: Hypothetical Protein 003118-3674 Similar to Lycopersicon esculentum Calmodulin, bait fragment aa 75-149 (Oryza sativa, UniProt Q84VG0 75-148)
T3 construct: bait; also called PN20551
T3 sequence: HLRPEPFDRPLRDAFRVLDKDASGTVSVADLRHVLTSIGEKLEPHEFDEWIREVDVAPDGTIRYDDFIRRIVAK

T4: Auxin induced protein-like PN24061, prey clone aa 34-236 (Oryza sativa, UniProt A2XLV9 34-236)
T4 construct: prey; AD fusion; output trait library
T4 sequence: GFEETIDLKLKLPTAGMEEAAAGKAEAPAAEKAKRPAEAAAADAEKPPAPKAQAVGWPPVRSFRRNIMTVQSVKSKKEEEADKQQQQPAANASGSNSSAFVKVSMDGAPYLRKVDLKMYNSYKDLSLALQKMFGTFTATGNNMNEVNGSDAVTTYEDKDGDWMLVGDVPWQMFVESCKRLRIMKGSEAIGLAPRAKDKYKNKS

T5: Elicitor responsive protein, bait fragment aa 23-120 (Oryza sativa, UniProt Q0JBH9 23-120)
T5 construct: bait; also called OsERP; PN20696
T5 sequence: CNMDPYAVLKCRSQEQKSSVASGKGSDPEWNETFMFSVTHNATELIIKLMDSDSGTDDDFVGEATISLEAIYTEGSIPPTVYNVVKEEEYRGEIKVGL

T6: Soluble Starch Synthase, prey clone aa 68-270 (Oryza sativa, UniProt A2Y9M4 68-270)
T6 construct: prey; AD fusion; input trait library; also called OsSSS; PN19701
T6 sequence: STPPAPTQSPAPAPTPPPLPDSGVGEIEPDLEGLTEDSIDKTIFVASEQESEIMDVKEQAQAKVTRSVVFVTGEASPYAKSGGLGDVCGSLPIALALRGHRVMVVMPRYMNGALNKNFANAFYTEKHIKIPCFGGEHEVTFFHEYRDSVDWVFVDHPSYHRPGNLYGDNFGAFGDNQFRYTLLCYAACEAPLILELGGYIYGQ

T7: Soluble Starch Synthase, prey clone aa 97-263 (Oryza sativa, UniProt A2Y9M4 97-263)
T7 construct: prey; AD fusion; output trait library; also called OsSSS; PN19701
T7 sequence: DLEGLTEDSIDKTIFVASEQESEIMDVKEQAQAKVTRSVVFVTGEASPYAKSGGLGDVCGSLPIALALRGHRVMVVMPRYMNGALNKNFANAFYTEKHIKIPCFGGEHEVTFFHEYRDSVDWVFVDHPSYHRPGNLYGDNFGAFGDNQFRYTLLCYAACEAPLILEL

B1: Elicitor responsive protein, prey clone aa 54-144 (other)
chain: ETFMFSVTHNATELIIKLMDSDSGTDDDFVGEATISLEAIYTEGSIPPTVYNVVKEEEYRGEIKVGLTFTPEDDRDRGLSEEDIGGWKQSS
notes: prey; AD fusion; input trait library; also called OsERP; PN20696
B2: OsSGT1, prey clone aa 9-227 (other)
chain: LESKAKAAFVDDDFELAAELYTQAIEASPATAELYADRAQAHIKLGNYTEAVADANKAIELDPSMHKAYLRKGAACIRLEEYQTAKAALELGYSFASGDSRFTRLMKECDERIAEELTEVPVKKAEDGAAAPSVASFVEEKDDAANMDNTPPMVEVKPKYRHDFYNSATEVVLTIFAKGVPAENVVVDFGEQMLSVSIEVPGEEPYHFQPRLFSKIIPE
notes: prey; AD fusion; output trait library; also called PN20285
B3: Oryza sativa Putative Myosin, prey clone aa 685-888 (other)
chain: IYEQGLVLQQLKCCGVLEVVRISRSGYPTRMTHQKFARRYGFLLLEDVASQDPLSVSVAILHQFNILPEMYQVGYTKLFFRTGQIGKLEDTRNRTLHGILRVQSCFRGHQARRHARERIRGVLALQSFIRGENARKMYSSLARKHRAAIILQRNLKCWLARRYFVNIRKASVVIQSGIRGCLVRRCAGNVDLLNVLREFESKKE
notes: prey; AD fusion; output trait library; also called OsPN23878
B4: Novel Protein PN29950, prey clone aa 7-103 (other)
chain: TANLVGQITTTCTDDISVNRSAENSSQKNIPLDGVSAQSIKPSASSRSEPVGLGGGLQPKRRSRTAKPPGSSSDTGEVVNSSRISNSQNAVSMGQQV
notes: prey; AD fusion; output trait library; also called OsPN29950
B5: HSP70-like PN23949, prey clone aa 244-418 (other)
chain: HKLKSSLILMPMVSLLLLLLIRVLGRNRISPSPALSTLPKDEVERMVEEADKFAQEDKEKRDAIDTKNQADSVVYQTEKQLKELGDKVPAPVKEKVDAKLNELKEAIAGGSTQSMKDAMAALNEEVMQIGQAMYNQQPNAGAAGPTPGADAGPTSSGGKGPNDGDVIDADFTDSN
notes: prey; AD fusion; output trait library
B6: Novel Protein PN29950, prey clone aa 138-343 (other)
chain: RRQGGEGQVDFGSMISSVLNNPAFGNLLSNVAEQTGMGSAGDLRNMVEECAQSPAIMDTMSNLVQNVDGSGRGQGGIDLSRMMQQMMPVVSQVLGGAGARPAGTNSGQSRLQPRRSDMRVDDASDYGNSQIDLHQAREHIEQHDSPRDIFGAVLETAAQAYGEDESIEDMLEELVSDPELTDDYLKLLLQQVRQRIQSASQSGNQS
notes: prey; AD fusion; output trait library; two clones; also called OsPN29950
B7: O. sativa Glutelin CAA33838, prey clone aa 5-155 (other)
chain: VFSRFSIYFCVLLLCHGSMAQLFNPSTNPWHSPRQGSFRECRFDRLQAFEPLRKVRSEAGVTEYFDEKNELFQCTGTFVIRRVIQPQGLLVPRYTNIPGVVYIIQGRGSMGLTFPGCPATYQQQFQQFSSQGQSQSQKFRDEHQKIHQFRQ
notes: prey; AD fusion; output trait library; also called OsCAA33838; PN24775
B8: Novel Protein PN29950, prey clone aa 50-343 (other)
chain: ASSRSEPVGLGGGLQPKRRSRTAKPPGSSSDTGEVVNSSRISNSQNAVSMGQQVLQALASQNTNVNRSHVTDSPLPSTTSQFSGGMPPRRQGGEGQVDFGSMISSVLNNPAFGNLLSNVAEQTGMGSAGDLRNMVEECAQSPAIMDTMSNLVQNVDGSGRGQGGIDLSRMMQQMMPVVSQVLGGAGARPAGTNSGQSRLQPRRSDMRVDDASDYGNSQIDLHQAREHIEQHDSPRDIFGAVLETAAQAYGEDESIEDMLEELVSDPELTDDYLKLLLQQVRQRIQSASQSGNQS
notes: as for B4
B9: Hypothetical Protein 011994-D16, Similar to Z. mays DnaJ protein, prey clone aa 99-368 (other)
chain: FGPSFGGGGSSRGRRQRRGEDVIHPLKVSLEDLYNGTSKKLSLSRNVLCAKCKGKGSKSGASMRCPGCQGSGMKITIRQLGPSMIQQMQQPCNECKGTGESINEKDRCPGCKGEKVIQEKKVLEVHVEKGMQHNQKITFPGEADEAPDTVTGDIVFVLQQKDHSKFKRKGDDLFYEHTLSLTEALCGFQFVLTHLDNRQLLIKSNPGEVVKPDQFKAINDEGMPMYQRPFMKGKLYIHFTVEFPDSLAPEQCKALEAVLPPKPASQLTEM
notes: prey; AD fusion; output trait library; also called Os011994-D16; PN20618
B10: Novel Protein PN29037, prey clone aa 73-165 (other)
chain: VVFDKDGVLEQIGEGKGYVDMSTVDAATSCKISEAIKQKGGAFVEAPVSGSKKPAEDGQLVILAAGDKVLYDDMVPAFDVLGKKSFFLGEIGN
notes: prey; AD fusion; input trait library; also called OsPN29037
B11: Oryza sativa Putative Myosin, prey clone aa 824-935 (other)
chain: SLARKHRAAIILQRNLKCWLARRYFVNIRKASVVIQSGIRGCLVRRCAGNVDLLNVLREFESKKEAEGDQILIKASFLAELQRRILKAEATVREKDEENEMLQQRLQQYENR
notes: as for B3
B12: OsSGT1, bait fragment aa 200-368 (other)
chain: QMLSVSIEVPGEEPYHFQPRLFSKIIPEKSRYQVLSTKVEIRLAKAEQITWTSLDYDKKPKAVPQKIIPPAESAQRPSYPSSKSKKDWDKLEAEVKKEEKEEKLEGDAALNKFFRDIYSDADEDMRRAMMKSFVESNGTVLSTNWKDVGSKKVEGSPPDGMELKKWEY
notes: bait; also called PN20285
B13: Novel Protein PN24162, Porin-like, Voltage-Dependent Anion Channel Protein, prey clone aa 28-164 (other)
chain: QKLTVSTVSSSGVGLTSTAVKKGGLYTLDVSSVYKYKSTLVDVKVDTESNISTTLTVFDVLPSTKLVTSVKLPDYNSGKVEMQYFHENASFATAVGMKPSPVVEFSGTAGAQGLAFGAEAGFDTATGKFTKYSAAIG
notes: prey; AD fusion; output trait library; also called OsPN24162
B14: Receptor-like protein kinase-like PN31085, prey clone aa 378-553 (other)
chain: NGTISDSLGNLSELSDINLIGNNLTGHVPDSLTSLRLLQKLDLSGNDLTGPLPTFSPSVKVNVTGNLNFNGTAPGSAPSKDTPGSSSSRAPTLPGQGVLPENKKKRSAVVLATTIPVAVSVVALASVCAVLIFRKKRGSVPPNAASVVVHPRENSDPDNLVKIVMVNNDGNSSSTQ
notes: as for B5
B15: O. sativa Calreticulin Precursor, bait fragment aa 250-425 (other)
chain: PKEIPDPDAKKPEAGADEEDGEWTAPTIRNPEYKGPWKQKKIKNPNYQGKWKPPMIATPDFQDDPYIYAFDSLKSIGIELWQVKSGTLFDNILITDDAALAKTFAEETWAKHKDAEKAAFDEAEKKKEEEEAAKAGEDDDDLDDEDAEDEDKADEKADSDAEDGKDSDDEKHDEL
notes: bait; text says OsCRTC has 424 aa; also called OsCRTC; PN20544

Legend:
Test in all cases: yeast two-hybrid
[1] = biological target: B12
Method: (§1) Yeast carrying the target gene construct was combined with yeast carrying the activation domain library. The two yeast strains mated to form diploid yeast and were plated on media that selected for expression of one or more Ga14p-responsive reporter genes. Thus, both hybrid proteins (i.e., the target “bait” protein and the activation domain “prey” protein) were expressed in a yeast reporter strain where an interaction between the test proteins results in transcription of the reporter genes […]. Colonies that arose after incubation were selected for further characterization. The activation domain plasmid was isolated from each colony obtained in the two-hybrid search. The sequence of the insert in this construct was obtained by sequence analysis (e.g., Sanger's dideoxy nucleotide chain termination method; see Ausubel et al., 1988, including updates up to 2002). Thus, the identity of positives obtained from these searches was determined by sequence analysis against proprietary and public (e.g., GENBANK®) nucleic acid and protein databases.
(§2) The rice SGT1 protein shares 74 and 75% amino acid sequence similarity with two Arabidopsis thaliana SGT1 homologs and 45% amino acid sequence similarity with Saccharomyces cerevisiae SGT1. In yeast, SGT1 is required for cell-cycle progression at the G1/S-phase and G2/M-phase transitions. In A. thaliana, SGT1b interacts with Rar1 and mediates disease resistance. Thus, in plants, SGT1 likely controls processes that are fundamental to disease resistance and development. The rice OsSGT1 protein was chosen as a bait for these interaction studies based on its potential relevance to disease resistance and development.

[2] = biological target: T1, Hypothetical Protein 006819-2510, …
[3] = biological target: T8, O. sativa Calreticulin Precursor, bait fragment aa 1-150 (Oryza sativa, UniProt Q9SLY8 1-150)
T8 construct: bait; also called OsCRTC; PN20544
T8 sequence (Q9SLY8 1-150): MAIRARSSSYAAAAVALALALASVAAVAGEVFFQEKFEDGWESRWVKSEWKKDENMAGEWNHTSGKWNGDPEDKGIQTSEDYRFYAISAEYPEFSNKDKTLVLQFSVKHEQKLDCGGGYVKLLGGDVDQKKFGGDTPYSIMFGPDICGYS

[4] = biological target: T2, O. sativa Serine/Threonine Protein …
[5] = biological target: T3, Hypothetical Protein 003118-3674 …
[6] = biological target: T4, Auxin induced protein-like PN24061, …
Method: as §1, §2

[7] = biological target: T5, Elicitor responsive protein, bait …
[8] = biological target: T6, Soluble Starch Synthase, prey clone aa …
[9] = biological target: T7, Soluble Starch Synthase, prey clone aa …

Binder: B1
binding result [1]: binds

Binder: B2
binding result [1]: binds

Binder: B3
binding result [2]: binds

Binder: B4
binding result [3]: binds

Binder: B5
binding result [1]: binds

Binder: B6
binding result [3]: binds

Binder: B7
binding result [4]: binds

Binder: B8
binding result [3]: binds

Binder: B9
binding result [4]: binds

Binder: B10
binding result [2]: binds

Binder: B11
binding result [5]: binds

Binder: B12
binding result [6]: binds

Binder: B13
binding result [4]: binds

Binder: B14
binding result [7]: binds

Binder: B15
binding result [8]: binds
binding result [9]: binds
